One data set concerns the target T1, RHAU(ΔGly–RSM)-FLAG (Homo sapiens, UniProt Q9H2U1 105-1008).
T1 sequence: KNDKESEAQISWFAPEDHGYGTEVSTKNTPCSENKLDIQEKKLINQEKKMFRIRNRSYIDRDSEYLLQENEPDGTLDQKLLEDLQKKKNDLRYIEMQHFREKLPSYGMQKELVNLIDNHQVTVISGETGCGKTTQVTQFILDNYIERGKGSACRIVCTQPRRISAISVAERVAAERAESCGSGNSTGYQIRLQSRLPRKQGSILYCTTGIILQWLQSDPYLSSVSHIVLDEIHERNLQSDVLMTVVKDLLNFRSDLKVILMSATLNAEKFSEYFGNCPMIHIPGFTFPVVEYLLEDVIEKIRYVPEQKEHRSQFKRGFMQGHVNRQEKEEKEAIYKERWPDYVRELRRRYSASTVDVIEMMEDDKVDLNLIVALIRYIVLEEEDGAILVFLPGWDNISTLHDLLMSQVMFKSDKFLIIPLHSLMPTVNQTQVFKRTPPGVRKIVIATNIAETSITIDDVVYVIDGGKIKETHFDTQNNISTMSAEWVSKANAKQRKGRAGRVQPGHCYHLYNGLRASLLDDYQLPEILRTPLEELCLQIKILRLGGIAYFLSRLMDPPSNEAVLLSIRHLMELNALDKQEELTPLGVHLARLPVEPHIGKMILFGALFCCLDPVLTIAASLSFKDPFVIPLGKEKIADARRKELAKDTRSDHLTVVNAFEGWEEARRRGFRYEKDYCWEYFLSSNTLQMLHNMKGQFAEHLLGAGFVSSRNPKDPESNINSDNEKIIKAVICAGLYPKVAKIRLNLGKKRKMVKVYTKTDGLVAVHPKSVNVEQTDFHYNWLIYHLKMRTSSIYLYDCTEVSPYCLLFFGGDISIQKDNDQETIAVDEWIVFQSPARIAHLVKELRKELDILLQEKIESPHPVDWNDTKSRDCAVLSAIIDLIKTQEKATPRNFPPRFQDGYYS
Put plainly: EMSA. A general note: Mobility shift assays separate free from complexed probe on a gel.

For another data set, the target named is T2, GST-RHAU(WT) (Homo sapiens, UniProt Q9H2U1 1-1008).
T2 sequence: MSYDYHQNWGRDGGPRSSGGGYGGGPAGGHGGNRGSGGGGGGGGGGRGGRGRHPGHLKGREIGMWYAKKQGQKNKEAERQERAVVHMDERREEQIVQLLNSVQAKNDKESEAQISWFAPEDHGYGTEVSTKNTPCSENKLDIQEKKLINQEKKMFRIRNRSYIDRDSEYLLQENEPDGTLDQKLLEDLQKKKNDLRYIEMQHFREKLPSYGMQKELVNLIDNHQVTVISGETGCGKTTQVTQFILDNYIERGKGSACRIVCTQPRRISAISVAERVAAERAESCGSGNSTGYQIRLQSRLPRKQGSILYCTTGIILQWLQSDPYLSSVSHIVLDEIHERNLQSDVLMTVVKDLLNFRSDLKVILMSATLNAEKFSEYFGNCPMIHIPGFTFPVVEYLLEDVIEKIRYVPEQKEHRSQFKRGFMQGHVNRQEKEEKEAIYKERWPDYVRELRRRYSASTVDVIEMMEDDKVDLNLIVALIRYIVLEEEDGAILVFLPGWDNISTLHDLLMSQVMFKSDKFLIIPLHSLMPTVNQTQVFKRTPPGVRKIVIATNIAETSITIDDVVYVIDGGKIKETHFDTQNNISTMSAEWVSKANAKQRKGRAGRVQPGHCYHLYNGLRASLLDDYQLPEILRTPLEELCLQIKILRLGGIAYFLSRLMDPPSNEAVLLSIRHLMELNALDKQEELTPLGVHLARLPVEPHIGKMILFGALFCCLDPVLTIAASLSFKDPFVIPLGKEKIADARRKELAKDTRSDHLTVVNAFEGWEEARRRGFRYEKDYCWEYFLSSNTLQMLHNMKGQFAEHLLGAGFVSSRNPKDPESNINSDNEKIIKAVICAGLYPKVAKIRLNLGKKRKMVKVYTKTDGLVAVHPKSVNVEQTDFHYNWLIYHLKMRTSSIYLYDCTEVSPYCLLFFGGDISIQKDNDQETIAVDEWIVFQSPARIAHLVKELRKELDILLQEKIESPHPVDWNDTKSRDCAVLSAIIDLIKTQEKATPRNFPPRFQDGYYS
Put plainly: EMSA.

Usually Kd stands for the constant that tells how readily two partners part at equilibrium. For AAAAAAAAAAAAAAAGGGGGAAAAAAAAAAAAAAA (structured_RNA) [tetramolecular G4-rAGA], the binding result with RHAU(ΔGly–RSM)-FLAG is recorded as “no binding”. The molecule also showed a Kd with GST-RHAU(WT) of 14 nM.

Source of the values: publication PMC2952847.
